Test results from doi:10.1101/197186 (bioRxiv, 2017).

Biological target: the molecule itself
Assay: SEC

B1: human MORC2(1-603) S87L (domain or fragment)
chain: MAFTNYSSLNRAQLTFEYLHTNSTTHEFLFGALAELVDNARDADATRIDIYAERREDLRGGFMLCFLDDGAGMDPSDAASVIQFGKLAKRTPESTQIGQYGNGLKSGSMRIGKDFILFTKKEDTMTCLFLSRTFHEEEGIDEVIVPLPTWNARTREPVTDNVEKFAIETELIYKYSPFRTEEEVMTQFMKIPGDSGTLVIIFNLKLMDNGEPELDIISNPRDIQMAETSPEGTKPERRSFRAYAAVLYIDPRMRIFIHGHKVQTKRLSCCLYKPRMYKYTSSRFKTRAEQEVKKAEHVARIAEEKAREAESKARTLEVRLGGDLTRDSRVMLRQVQNRAITLRREADVKKRIKEAKQRALKEPKELNFVFGVNIEHRDLDGMFIYNCSRLIKMYEKVGPQLEGGMACGGVVGVVDVPYLVLEPTHNKQDFADAKEYRHLLRAMGEHLAQYWKDIAIAQRGIIKFWDEFGYLSANWNQPPSSELRYKRRRAMEIPTTIQCDLCLKWRTLPFQLSSVEKDYPDTWVCSMNPDPEQDRCEASEQKQKVPLGTFRKDMKTQEEKQKQLTEKIRQQQEKLEALQKTTPIRSQADLKKLPLEVTTRPST
- stoichiometry N: 2
